According to paper PMC10786891, “Massively parallel profiling of RNA-targeting CRISPR-Cas13d”:
Residue numbers refer to the chain shown, from its start. Names and notes keep the numbering of the source.

T1: EsCas13d, nuclease-dead (Eubacterium siraeum, UniProt B0MS50, R295A;H300A;R849A;H854A)
T1 sequence: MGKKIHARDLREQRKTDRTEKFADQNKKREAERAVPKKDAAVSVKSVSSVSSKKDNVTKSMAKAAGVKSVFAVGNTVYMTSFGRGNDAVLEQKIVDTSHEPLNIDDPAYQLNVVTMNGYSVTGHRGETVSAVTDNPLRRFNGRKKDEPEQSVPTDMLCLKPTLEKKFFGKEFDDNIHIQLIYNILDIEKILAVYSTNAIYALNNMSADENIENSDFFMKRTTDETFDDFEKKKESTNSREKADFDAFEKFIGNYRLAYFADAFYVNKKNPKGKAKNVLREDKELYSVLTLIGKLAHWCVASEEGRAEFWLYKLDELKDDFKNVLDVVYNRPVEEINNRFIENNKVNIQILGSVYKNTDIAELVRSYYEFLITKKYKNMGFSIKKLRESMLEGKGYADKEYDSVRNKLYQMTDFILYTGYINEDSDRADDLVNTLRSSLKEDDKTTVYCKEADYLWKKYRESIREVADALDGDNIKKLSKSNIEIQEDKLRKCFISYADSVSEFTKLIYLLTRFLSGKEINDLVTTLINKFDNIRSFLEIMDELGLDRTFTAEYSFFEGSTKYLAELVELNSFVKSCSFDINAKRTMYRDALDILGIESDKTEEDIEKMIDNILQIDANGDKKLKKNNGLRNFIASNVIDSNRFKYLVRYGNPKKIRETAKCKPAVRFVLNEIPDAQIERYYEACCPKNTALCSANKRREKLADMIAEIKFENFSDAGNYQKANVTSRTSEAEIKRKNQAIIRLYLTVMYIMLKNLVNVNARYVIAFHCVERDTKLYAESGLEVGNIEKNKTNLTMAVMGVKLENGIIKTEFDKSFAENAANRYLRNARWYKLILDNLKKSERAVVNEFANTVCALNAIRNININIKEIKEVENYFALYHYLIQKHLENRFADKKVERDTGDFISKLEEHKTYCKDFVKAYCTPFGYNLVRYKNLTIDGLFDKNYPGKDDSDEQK

B1: target 1 G13U,G15A (mixed)
RNA 1: CACCCGUGCAAAAAUGCAGGGGUCUAAAACUGAGCGGAUAACCUCUCUAUGG
RNA 2: GGGAAUGGAUCCACAUCUACGAAUUCGUACCAUAGAAAUGUUAUCCGCUCACCGAGAUCGGAAGAGCACACGU
B2: target 1 insG 3' of 19,insA 3' of 11 (mixed)
RNA 1: B1 RNA 1
RNA 2: GGGAAUGGAUCCACAUCUACGAAUUCGUACCAUGAGAGAGGUAUAUCCGCUCACCGAGAUCGGAAGAGCACACGU
B3: target 1 insC 3' of 9,insA 3' of 2 (mixed)
RNA 1: B1 RNA 1
RNA 2: GGGAAUGGAUCCACAUCUACGAAUUCGUACCAUAGAGAGGUUACUCCGCUCAACCGAGAUCGGAAGAGCACACGU
B4: target 2 MT 5'PFS CUU 3'PFS AGC (mixed)
RNA 1: CACCCGUGCAAAAUUGCAGGGGUCUAAAACCUUCUCCAAAUUGUUUCAUCCU
RNA 2: GGGAAUGGAUCCACAUCUACGAAUUCCUUAGGAUGAAACAAUUUGGAGAAGAGCAGAUCGGAAGAGCACACGU
B5: target 2 MT 5'PFS GCC 3'PFS AUC (mixed)
RNA 1: B4 RNA 1
RNA 2: B4 RNA 2 with C27G, U28C, U29C, G53U
B6: target 2 MT 5'PFS ACG 3'PFS UAG (mixed)
RNA 1: B4 RNA 1
RNA 2: B4 RNA 2 with C27A, U28C, U29G, A52U, G53A, C54G
B7: target 2 MT 5'PFS UAA 3'PFS UAC (mixed)
RNA 1: B4 RNA 1
RNA 2: B4 RNA 2 with C27U, U28A, U29A, A52U, G53A
B8: target 2 MT 5'PFS GUG 3'PFS AAG (mixed)
RNA 1: B4 RNA 1
RNA 2: B4 RNA 2 with C27G, U29G, G53A, C54G
B9: target 2 MT 5'PFS GCC 3'PFS AUG (mixed)
RNA 1: B4 RNA 1
RNA 2: B4 RNA 2 with C27G, U28C, U29C, G53U, C54G
B10: target 2 MT 5'PFS CUU 3'PFS AGU (mixed)
RNA 1: B4 RNA 1
RNA 2: B4 RNA 2 with C54U
B11: target 2 MT 5'PFS AAG 3'PFS CUC (mixed)
RNA 1: B4 RNA 1
RNA 2: B4 RNA 2 with C27A, U28A, U29G, A52C, G53U
B12: target 2 MT 5'PFS AGG 3'PFS UAA (mixed)
RNA 1: B4 RNA 1
RNA 2: B4 RNA 2 with C27A, U28G, U29G, A52U, G53A, C54A
B13: target 2 MT 5'PFS AAA 3'PFS AAA (mixed)
RNA 1: B4 RNA 1
RNA 2: B4 RNA 2 with C27A, U28A, U29A, G53A, C54A
B14: target 2 MT 5'PFS AGU 3'PFS AAG (mixed)
RNA 1: B4 RNA 1
RNA 2: B4 RNA 2 with C27A, U28G, G53A, C54G
B15: target 2 MT 5'PFS CUU 3'PFS CGC (mixed)
RNA 1: B4 RNA 1
RNA 2: B4 RNA 2 with A52C
B16: target 2 MT 5'PFS CUU 3'PFS CGU (mixed)
RNA 1: B4 RNA 1
RNA 2: B4 RNA 2 with A52C, C54U
B17: target 2 MT 5'PFS CUU 3'PFS CGG (mixed)
RNA 1: B4 RNA 1
RNA 2: B4 RNA 2 with A52C, C54G
B18: target 2 MT 5'PFS CUU 3'PFS AGG (mixed)
RNA 1: B4 RNA 1
RNA 2: B4 RNA 2 with C54G
B19: target 2 MT 5'PFS UGA 3'PFS AGA (mixed)
RNA 1: B4 RNA 1
RNA 2: B4 RNA 2 with C27U, U28G, U29A, C54A
B20: target 2 MT 5'PFS GAG 3'PFS CCA (mixed)
RNA 1: B4 RNA 1
RNA 2: B4 RNA 2 with C27G, U28A, U29G, A52C, G53C, C54A
B21: target 2 MT 5'PFS GAG 3'PFS CCG (mixed)
RNA 1: B4 RNA 1
RNA 2: B4 RNA 2 with C27G, U28A, U29G, A52C, G53C, C54G
B22: target 2 MT 5'PFS GCC 3'PFS AUA (mixed)
RNA 1: B4 RNA 1
RNA 2: B4 RNA 2 with C27G, U28C, U29C, G53U, C54A
B23: target 2 MT 5'PFS UAU 3'PFS UCG (mixed)
RNA 1: B4 RNA 1
RNA 2: B4 RNA 2 with C27U, U28A, A52U, G53C, C54G
B24: target 2 MT 5'PFS GUG 3'PFS AAA (mixed)
RNA 1: B4 RNA 1
RNA 2: B4 RNA 2 with C27G, U29G, G53A, C54A
B25: target 2 MT 5'PFS AGU 3'PFS AAU (mixed)
RNA 1: B4 RNA 1
RNA 2: B4 RNA 2 with C27A, U28G, G53A, C54U
B26: target 2 MT 5'PFS GAG 3'PFS CCU (mixed)
RNA 1: B4 RNA 1
RNA 2: B4 RNA 2 with C27G, U28A, U29G, A52C, G53C, C54U
B27: target 2 MT 5'PFS GUG 3'PFS AAU (mixed)
RNA 1: B4 RNA 1
RNA 2: B4 RNA 2 with C27G, U29G, G53A, C54U
B28: target 2 MT 5'PFS GUG 3'PFS AAC (mixed)
RNA 1: B4 RNA 1
RNA 2: B4 RNA 2 with C27G, U29G, G53A
B29: target 2 MT 5'PFS AAG 3'PFS CUG (mixed)
RNA 1: B4 RNA 1
RNA 2: B4 RNA 2 with C27A, U28A, U29G, A52C, G53U, C54G
B30: target 2 MT 5'PFS CUU 3'PFS CGA (mixed)
RNA 1: B4 RNA 1
RNA 2: B4 RNA 2 with A52C, C54A
B31: target 2 MT 5'PFS UCU 3'PFS UCC (mixed)
RNA 1: B4 RNA 1
RNA 2: B4 RNA 2 with C27U, U28C, A52U, G53C
B32: target 2 MT 5'PFS AAG 3'PFS CUA (mixed)
RNA 1: B4 RNA 1
RNA 2: B4 RNA 2 with C27A, U28A, U29G, A52C, G53U, C54A
B33: target 2 MT 5'PFS UAA 3'PFS UAA (mixed)
RNA 1: B4 RNA 1
RNA 2: B4 RNA 2 with C27U, U28A, U29A, A52U, G53A, C54A

target: T1, EsCas13d, nuclease-dead; test: crRNA (strand 1, pre-loaded); Mg2+; 40 mM Tris-HCl pH 7.5, 150 mM NaCl, 6 mM MgCl2, 1 mM DTT, 0.1% Tween-20, 0.2 mg/ml BSA; 25 C; 10 min per concentration, then washed; details: tags: His6-TwinStrep-SUMO cleaved; N-terminal SNAP kept (SNAP-Surface 488); label: 3' end held by stalled T7 RNA polymerase

In order of falling Kd:
1. B26  ~130 nM
2. B2  89 ± 16 nM
3. B23  27.2 ± 3.2 nM
4. B1  22 ± 4 nM
5. B20  17.2 ± 2.6 nM
6. B9  12.9 ± 1.1 nM
7. B5  12.7 ± 1.1 nM
8. B8  12.4 ± 1.8 nM
9. B3  12.3 ± 0.7 nM
10. B14  11 ± 2.4 nM
11. B28  10.5 ± 1.6 nM
12. B22  10.4 ± 1.8 nM
13. B11  10 ± 1.6 nM
14. B24  9.7 ± 1.4 nM
15. B27  8.6 ± 1 nM
16. B25  7.6 ± 1 nM
17. B31  7.2 ± 0.7 nM
18. B7  7.1 ± 1.6 nM
19. B21  6.77 ± 0.3 nM
20. B19  5.4 ± 0.5 nM
21. B15  5 ± 0.4 nM
22. B12  4.9 ± 1.1 nM
23. B13  4.9 ± 1.3 nM
24. B29  4.9 ± 0.7 nM
25. B33  4.8 ± 1.3 nM
26. B6  4.6 ± 1.1 nM
27. B32  4.4 ± 0.6 nM
28. B16  3.8 ± 0.5 nM
29. B30  3.4 ± 0.4 nM
30. B10  3.1 ± 0.4 nM
31. B17  2.9 ± 0.4 nM
32. B18  2.4 ± 0.4 nM
33. B4  2.28 ± 0.22 nM
